Key:
[1] = target: human TNF-α (human) (UniProt P01375); assay: cell-based or functional assay
[2] = target: human IL-17A (human) (UniProt Q16552); assay: cell-based or functional assay
Sequence of UniProt Q16552 (Q16552 24-155 limits assumed): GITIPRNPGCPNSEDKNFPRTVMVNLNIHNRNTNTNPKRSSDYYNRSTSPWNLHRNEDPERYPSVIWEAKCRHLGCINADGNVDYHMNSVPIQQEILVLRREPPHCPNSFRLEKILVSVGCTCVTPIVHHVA

Sequence of UniProt P01375 (P01375 77-233 limits assumed): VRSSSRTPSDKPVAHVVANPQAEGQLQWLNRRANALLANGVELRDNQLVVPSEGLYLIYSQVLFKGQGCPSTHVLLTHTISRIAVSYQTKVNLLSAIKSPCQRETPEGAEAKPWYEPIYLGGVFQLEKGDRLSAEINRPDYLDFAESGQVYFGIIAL

IC50, hIL-6 secretion of commercial RA-FLS cells stimulated with IL-17A and TNF-α (co-neutralization) [1]: 0.0149 nM
IC50, hIL-6 secretion of commercial RA-FLS cells stimulated with hTNF-α [1]: 0.0186 nM
IC50, hIL-6 secretion of commercial RA-FLS cells stimulated with IL-17A and TNF-α (co-neutralization) [2]: 0.0149 nM
IC50, hIL-6 secretion of commercial RA-FLS cells stimulated with hIL-17A [2]: 0.371 nM
Substance: LY3114062 (bispecific antibody)

Reference: US20220098297A1
